In the Human Domainome abundance scans (Beltran et al. 2025) one finds abundance fitness data, which are given here for 46 variants.

First the molecules themselves.
B1: Spectrin alpha chain, erythrocytic 1, residues 979 to 1036; numbered along this chain, P02549 (parent)
chain: EQRVMALYDFQARSPREVTMKKGDVLTLLSSINKDWWKVEAADHQGIVPAVYVRRLAH

± gives the uncertainty stated by the source.

The variants in the data set derive from B1. The experiment in a line: abundance fitness (aPCA) (normalised: wild type 0, dead -1); higher = more abundant; growth selection in yeast, the domain comes from the species named. The following applies: Homo sapiens.
On to EQRVMALYDFQARSPREVTMKKGDVLTLLSSINKDWWKVEAADHQGIVPMVYVRRLAH, for which the abundance fitness is -0.823 ± 0.2.
In the case of EQRVMALYDFQARSPREVTMKKGDVLTLLSSINKDWWKVEAADHQGIVPWVYVRRLAH it was -0.879 ± 0.23.
In the case of EQRVMALYDFQARSPREVTMKKGDVLTLLSSINKDWWKVEAADHQGIVPLVYVRRLAH it was -0.844 ± 0.2.
In the case of EQRVMALYDFQARSPREVTMKKGDVLTLLSSINKDWWKVEAADHQGIVPPVYVRRLAH, the abundance fitness was -0.847 ± 0.4.
Turning to EQRVMALYDFQARSPREVTMKKGDVLTLLSSINKDWWKVEAADHQGIVPCVYVRRLAH, the abundance fitness was -0.512 ± 0.3.
Take EQRVMALYDFQARSPREVTMKKGDVLTLLSSINKDWWKVEAADHQGIVPGVYVRRLAH: the abundance fitness is -0.967 ± 0.19.
In the case of EQRVMALYDFQARSPREVTMKKGDVLTLLSSINKDWWKVEAADHQGIVPDVYVRRLAH it was -0.872 ± 0.22.
In the case of EQRVMALYDFQARSPREVTMKKGDVLTLLSSINKDWWKVEAADHQGIVPRVYVRRLAH it was 0.04 ± 0.12; in that of EQRVMALYDFQARSPREVTMKKGDVLTLLSSINKDWWKVEAADHQGIVVAVYVRRLAH, -0.797 ± 0.36.
In the case of EQRVMALYDFQARSPREVTMKKGDVLTLLSSINKDWWKVEAADHQGIVLAVYVRRLAH it was -0.887 ± 0.36.
Turning to EQRVMALYDFQARSPREVTMKKGDVLTLLSSINKDWWKVEAADHQGIVSAVYVRRLAH, the abundance fitness is -0.497 ± 0.42.
Consider EQRVMALYDFQARSPREVTMKKGDVLTLLSSINKDWWKVEAADHQGIVKAVYVRRLAH, for which the abundance fitness was -0.47 ± 0.42.
Take EQRVMALYDFQARSPREVTMKKGDVLTLLSSINKDWWKVEAADHQGIVTAVYVRRLAH: the abundance fitness was -0.477 ± 0.37.
In the case of EQRVMALYDFQARSPREVTMKKGDVLTLLSSINKDWWKVEAADHQGIVAAVYVRRLAH it was -0.932 ± 0.38; in that of EQRVMALYDFQARSPREVTMKKGDVLTLLSSINKDWWKVEAADHQGIVYAVYVRRLAH, -0.72 ± 0.36.
In the case of EQRVMALYDFQARSPREVTMKKGDVLTLLSSINKDWWKVEAADHQGIVEAVYVRRLAH it was -0.854 ± 0.18; in that of EQRVMALYDFQARSPREVTMKKGDVLTLLSSINKDWWKVEAADHQGIVQAVYVRRLAH, -0.898 ± 0.21; in that of EQRVMALYDFQARSPREVTMKKGDVLTLLSSINKDWWKVEAADHQGIVNAVYVRRLAH, -0.694 ± 0.14.
In the case of EQRVMALYDFQARSPREVTMKKGDVLTLLSSINKDWWKVEAADHQGIVWAVYVRRLAH it was -0.792 ± 0.41; in that of EQRVMALYDFQARSPREVTMKKGDVLTLLSSINKDWWKVEAADHQGIVGAVYVRRLAH, -0.44 ± 0.25; in that of EQRVMALYDFQARSPREVTMKKGDVLTLLSSINKDWWKVEAADHQWIVPAVYVRRLAH, -0.452 ± 0.38.
For the variant EQRVMALYDFQARSPREVTMKKGDVLTLLSSINKDWWKVEAADHQVIVPAVYVRRLAH, the abundance fitness is -1.03 ± 0.49.
In the case of EQRVMALYDFQARSPREVTMKKGDVLTLLSSINKDWWKVEAADHQYIVPAVYVRRLAH it was -0.897 ± 0.25.
In the case of EQRVMALYDFQARSPREVTMKKGDVLTLLSSINKDWWKVEAADHQGIVPAVYVARLAH it was -0.351 ± 0.17.
In the case of EQRVMALYDFQARSPREVTMKKGDVLTLLSSINKDWWKVEAADHQGIVPAVYVERLAH, the abundance fitness was -0.254 ± 0.33.
In the case of EQRVMALYDFQARSPREVTMKKGDVLTLLSSINKDWWKVEAADHQGIVPAVYVDRLAH it was 0.095 ± 0.32.
In the case of EQRVMALYDFQARSPREVTMKKGDVLTLLSSINKDWWKVEAADHQGIVPAVYVKRLAH it was 0.257 ± 0.17; in that of EQRVMALYDFQARSPREVTMKKGDVLTLLSSINKDWWKVEAADHQGIVPAVYVGRLAH, -0.491 ± 0.16; in that of EQRVMALYDFQARSPREVTMKKGDVLTLLSSINKDWWKVEAADHQGIVPAVYVLRLAH, -0.963 ± 0.19.
Turning to EQRVMALYDFQARSPREVTMKKGDVLTLLSSINKDWWKVEAADHQGIVPAVYVHRLAH, the abundance fitness is 0.83 ± 0.17.
For EQRVMALYDFQARSPREVTMKKGDVLTLLSSINKDWWKVEAADHQGIVPAWYVRRLAH, the abundance fitness was -0.18 ± 0.15.
For the variant EQRVMALYDFQARSPREVTMKKGDVLTLLSSINKDWWKVEAADHQGIVPAEYVRRLAH, the abundance fitness is -0.31 ± 0.24.
In the case of EQRVMALYDFQARSPREVTMKKGDVLTLLSSINKDWWKVEAADHQGIVPAPYVRRLAH it was 0.173 ± 0.17.
In the case of EQRVMALYDFQARSPREVTMKKGDVLTLLSSINKDWWKVEAADHQGIVPAGYVRRLAH it was 0.146 ± 0.099; in that of EQRVMALYDFQARSPREVTMKKGDVLTLLSSINKDWWKVEAADHQGIVPAHYVRRLAH, 0.216 ± 0.26.
Turning to EQRVMALYDFQARSPREVTMKKGDVLTLLSSINKDWWKVEAADHQGIVPARYVRRLAH, the abundance fitness stood at 0.643 ± 0.079.
In the case of EQRVMALYDFQARSPREVTMKKGDVLTLLSSINKDWWKVEAADHQGIVPAYYVRRLAH it was -0.242 ± 0.1; in that of EQRVMALYDFQARSPREVTMKKGDVLTLLSSINKDWWKVEAADHQGIVPAQYVRRLAH, 0.126 ± 0.19.
On to EQRVMALYDFQARSPREVTMKKGDVLTLLSSINKDWWKVEAADHQGIVPALYVRRLAH, for which the abundance fitness is -0.083 ± 0.12.
Take EQRVMALYDFQARSPREVTMKKGDVLTLLSSINKDWWKVEAADHQGIVPASYVRRLAH: the abundance fitness was found to be 0.579 ± 0.08.
In the case of EQRVMALYDFQARSPREVTMKKGDVLTLLSSINKDWWKVEAADHQGIVPAKYVRRLAH it was 0.525 ± 0.14; in that of EQRVMALYDFQARSPREVTMKKGDVLTLLSSINKDWWKVEAADHQGIVPAFYVRRLAH, 0.246 ± 0.26; in that of EQRVMALYDFQARSPREVTMKKGDVLTLLSSINKDWWKVEAADHQGIVPADYVRRLAH, 0.148 ± 0.26.
In the case of EQRVMALYDFQARSPREVTMKKGDVLTLLSSINKDWWKVEAADHQGIVPAMYVRRLAH it was 0.149 ± 0.12; in that of EQRVMALYDFQARSPREVTMKKGDVLTLLSSINKDWWKVEAADHQGIVPAIYVRRLAH, 0.201 ± 0.17; in that of EQRVMALYDFQARSPREVTMKKGDVLTLLSSINKDWWKVEAADHQGIVPAAYVRRLAH, 0.616 ± 0.075.
